The values below come from PMC3638400 (Philosophical Transactions of the Royal Society B: …, 2013).

For series [1], the target named is desmin (assembled into filaments, or immobilised on a sensor chip) (not stated (chicken gizzard desmin or recombinant human desmin prepared)) (UniProt P17661). As to the kind of experiment: co-sedimentation; high-speed; filaments assembled at 0.2 mg ml^-1 with WT CRYAB at 1 : 1 molar ratio; 20 mM HEPES, 100 mM NaCl, 1 mM MgCl2, 1 mM DTT, pH 6.3; 23, 39 or 44°C.
Series [2] deals with the molecule itself. Kind of series: SEC; Superformance column packed with Fractogel EMD BioSEC, calibrated with protein standards; 20 mM Tris-HCl pH 7.4, 100 mM NaCl, room temperature; self-association into oligomers. (Size exclusion chromatography separates by hydrodynamic size, large species first.)
The target of series [3] is T1, filaments of keratins 7 and 18 (human, UniProt P08729 1-469; P05783 1-430).
T1 construct: keratin 7, recombinant human; keratin 18, recombinant human; In vitro assembled keratin filaments; also called keratin filaments
T1 sequence (looked up) 1: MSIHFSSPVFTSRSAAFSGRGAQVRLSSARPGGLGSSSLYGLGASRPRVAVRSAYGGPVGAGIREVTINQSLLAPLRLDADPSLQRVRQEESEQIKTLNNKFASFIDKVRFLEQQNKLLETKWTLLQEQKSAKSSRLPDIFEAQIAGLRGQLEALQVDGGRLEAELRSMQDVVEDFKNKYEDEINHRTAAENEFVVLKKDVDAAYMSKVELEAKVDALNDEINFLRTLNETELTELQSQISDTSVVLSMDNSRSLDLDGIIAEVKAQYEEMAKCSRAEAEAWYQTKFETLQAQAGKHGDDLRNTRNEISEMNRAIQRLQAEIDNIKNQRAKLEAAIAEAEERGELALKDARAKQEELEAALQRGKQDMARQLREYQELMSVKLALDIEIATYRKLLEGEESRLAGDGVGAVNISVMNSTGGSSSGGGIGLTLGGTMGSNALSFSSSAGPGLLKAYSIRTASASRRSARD
T1 sequence (looked up) 2: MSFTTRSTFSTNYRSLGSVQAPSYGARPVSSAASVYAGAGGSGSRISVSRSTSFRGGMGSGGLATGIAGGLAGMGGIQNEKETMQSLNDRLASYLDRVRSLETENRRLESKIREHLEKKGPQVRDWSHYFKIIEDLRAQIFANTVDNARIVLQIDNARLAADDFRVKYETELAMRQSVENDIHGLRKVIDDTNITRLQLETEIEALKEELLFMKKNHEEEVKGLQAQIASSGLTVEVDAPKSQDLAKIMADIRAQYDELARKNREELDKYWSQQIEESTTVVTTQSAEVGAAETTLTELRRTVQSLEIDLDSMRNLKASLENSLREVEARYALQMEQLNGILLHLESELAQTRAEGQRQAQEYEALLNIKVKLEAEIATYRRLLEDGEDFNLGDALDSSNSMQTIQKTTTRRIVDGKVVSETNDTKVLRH
As to the kind of experiment: co-sedimentation; filaments assembled with the sHSP (desmin : sHSP 1 : 1 molar ratio) at three temperatures (22, 37, 44°C named in the text); pellet and supernatant by SDS-PAGE, Coomassie Blue. Conditions: both partners purified.

For series [4], the target named is T2, glial fibrillary acidic protein (GFAP) (human, UniProt P14136 1-432).
T2 construct: glial fibrillary acidic protein, recombinant human; Assembled into filaments for co-sedimentation and viscometry; immobilised on the chip for SPR; also called WT GFAP; GFAP filaments
T2 sequence (P14136 whole entry): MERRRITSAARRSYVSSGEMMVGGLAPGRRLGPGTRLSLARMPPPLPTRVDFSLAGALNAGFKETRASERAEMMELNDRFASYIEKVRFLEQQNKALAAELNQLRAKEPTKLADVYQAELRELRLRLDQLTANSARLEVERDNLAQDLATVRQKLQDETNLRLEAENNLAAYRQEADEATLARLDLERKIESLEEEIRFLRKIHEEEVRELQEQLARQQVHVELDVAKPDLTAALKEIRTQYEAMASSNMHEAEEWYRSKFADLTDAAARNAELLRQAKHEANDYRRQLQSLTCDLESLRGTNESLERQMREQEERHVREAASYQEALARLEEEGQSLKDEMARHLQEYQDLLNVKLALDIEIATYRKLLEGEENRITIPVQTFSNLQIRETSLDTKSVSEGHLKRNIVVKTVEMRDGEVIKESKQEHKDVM
As to the kind of experiment: SPR; Biacore 3000; desmin, GFAP and vimentin immobilised on a CM5 chip; CRYAB injected at 20 g ml^-1 (so in the source) for 7 min at 37°C, then washed 7 min; 10 mM HEPES pH 7.4, 0.15 M NaCl, 3.4 mM EDTA, 0.005% P20; double referencing. The settings on record: both partners purified. (In general: Surface plasmon resonance follows binding to a sensor surface in real time, without labels.)

Residue numbers refer to the chain shown, from its start. Names and notes keep the numbering of the source.

For the molecule “wild-type αB-crystallin (CRYAB, HSPB5) (from UniProt P02511 1-175) (natural protein)”, in series [1], the percent of the total CRYAB co-sedimented (pH 6.3, 39°C to 44°C) was > 35 per cent.

B1: wild-type αB-crystallin (CRYAB, HSPB5) (natural protein, human, UniProt P02511 1-175, looked up)
chain: MDIAIHHPWIRRPFFPFHSPSRLFDQFFGEHLLESDLFPTSTSLSPFYLRPPSFLRAPSWFDTGLSEMRLEKDRFSVNLDVKHFSPEELKVKVLGDVIEVHGKHEERQDEHGFISREFHRKYRIPADVDPLTITSSLSSDGVLTVNGPRKQVSGPERTIPITREEKPAVTAAPKK
notes: αB-crystallin (CRYAB, HSPB5), human; Polydisperse oligomer (apparent size about 520 kDa by SEC); also called WT CRYAB; WT αB-crystallin
Turning to B1, the binding result in series [2] and in series [3] was “binds” each time.

B2: R120G αB-crystallin (R120G CRYAB) (natural protein, human, UniProt P02511 1-175, looked up)
chain: B1 chain with R120G
notes: αB-crystallin (CRYAB, HSPB5), human, with the disease-causing mutation R120G; Mutation found in a human family with desmin-related myopathy and cataract; Oligomer of apparent size 684 kDa by SEC; also called CRYAB R120G
B2: the binding result in series [2], in series [3] and in series [4] was “binds” throughout.
